Here are results for one substance from patent publication US5665701.

The target in test [1] is FcγRII receptor (CD32) on human platelets (human) (UniProt P12318).
Test [2] shares this target. This is another data set of the same source.

CD32 antibody IV.3 (M.Ab.IV.3) gave a concentration that doubled the latency of M.Ab.F11-induced aggregation in test [1] of 150 ng/mL. This substance showed an inhibition of M.Ab.F11-induced ^14 C-serotonin release in test [2] of 1 µg/mL.
